Measurements as given in article PMC4205158 (Structure (London, England : 1993), 2008).
Entries after “also recorded” stand apart in the source; their conditions may differ.

What was measured:
IRAK1-ki = test: GST-pulldown of kinase-inactive mutant IRAK1-ki; details: qualitative, HEK293T lysates
IRAK1b = test: GST-pulldown of IRAK1b; details: qualitative; HEK293T lysates; kinase-inactive IRAK1b

| Molecule | Kd (Rad9(pT192) peptide) | interaction with IRAK1-ki in GST-pulldown (IRAK1-ki) | interaction with IRAK1b in GST-pulldown (IRAK1b) |
| --- | --- | --- | --- |
| Purified Pellino2 (from UniProt Q9HAT8 1-420) (natural protein) | > 100 µM | – | – |
| Pellino2: GST-fusion protein of full-length Pellino2 (human cDNA) (protein, left off: His6, N-terminal, cleaved) MFSPGQEEHCAPNKEPVKYGELVVLGYNGALPNGDRGRRKSRFALYKRPKANGVKPSTVHVISTPQASKAISCKGQHSISYTLSRNQTVVVEYTHDKDTDMFQVGRSTESPIDFVVTDTISGSQNTDEAQITQSTISRFACRIVCDRNEPYTARIFAAGFDSSKNIFLGEKAAKWKNPDGHMDGLTTNGVLVMHPRGGFTEESQPGVWREISVCGDVYTLRETRSAQQRGKLVESETNVLQDGSLIDLCGATLLWRTADGLFHTPTQKHIEALRQEINAARPQCPVGLNTLAFPSINRKEVVEEKQPWAYLSCGHVHGYHNWGHRSDTEANERECPMCRTVGPYVPLWLGCEAGFYVDAGPPTHAFTPCGHVCSEKSAKYWSQIPLPHGTHAFHAACPFCATQLVGEQNCIKLIFQGPID | – | are not precipitated; also recorded: do not interact | are not precipitated; also recorded: do not interact |
